We go through two molecules from US20110038874A1 (SHANGHAI AOSAIERSI BIOTECH, published 2011).

Test [1] concerns the target VEGFR2 expressed on HUVEC cells (human) (UniProt P35968). Description: cell-based or functional assay.
For test [2], the target named is T1, mouse VEGFR2 (mouse, UniProt P35918 20-762, limits assumed).
T1 construct: Assay and construct of the 'further study' are not described
Description: not described ("a further study").

T1 sequence (P35918 20-762 limits assumed): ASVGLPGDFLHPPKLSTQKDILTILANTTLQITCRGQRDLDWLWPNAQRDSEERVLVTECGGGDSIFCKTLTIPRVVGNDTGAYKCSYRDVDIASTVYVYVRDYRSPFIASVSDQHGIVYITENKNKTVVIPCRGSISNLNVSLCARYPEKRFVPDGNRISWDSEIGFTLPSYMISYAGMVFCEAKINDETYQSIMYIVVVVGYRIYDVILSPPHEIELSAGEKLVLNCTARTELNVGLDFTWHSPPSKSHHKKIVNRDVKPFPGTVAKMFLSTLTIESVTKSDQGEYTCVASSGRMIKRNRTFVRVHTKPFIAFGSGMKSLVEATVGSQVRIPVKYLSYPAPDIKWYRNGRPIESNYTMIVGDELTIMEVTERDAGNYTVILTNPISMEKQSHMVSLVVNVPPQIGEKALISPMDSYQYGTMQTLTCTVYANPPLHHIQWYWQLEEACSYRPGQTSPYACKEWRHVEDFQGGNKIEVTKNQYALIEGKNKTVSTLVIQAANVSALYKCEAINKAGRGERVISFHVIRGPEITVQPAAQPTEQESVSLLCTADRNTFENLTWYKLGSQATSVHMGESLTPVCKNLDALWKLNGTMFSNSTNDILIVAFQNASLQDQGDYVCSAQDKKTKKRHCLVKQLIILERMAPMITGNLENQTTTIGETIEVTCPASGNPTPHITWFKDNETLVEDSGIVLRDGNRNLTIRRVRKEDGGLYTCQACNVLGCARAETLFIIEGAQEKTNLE
Chain of VEGFR2 expressed on HUVEC cells (human) (P35968 20-1356): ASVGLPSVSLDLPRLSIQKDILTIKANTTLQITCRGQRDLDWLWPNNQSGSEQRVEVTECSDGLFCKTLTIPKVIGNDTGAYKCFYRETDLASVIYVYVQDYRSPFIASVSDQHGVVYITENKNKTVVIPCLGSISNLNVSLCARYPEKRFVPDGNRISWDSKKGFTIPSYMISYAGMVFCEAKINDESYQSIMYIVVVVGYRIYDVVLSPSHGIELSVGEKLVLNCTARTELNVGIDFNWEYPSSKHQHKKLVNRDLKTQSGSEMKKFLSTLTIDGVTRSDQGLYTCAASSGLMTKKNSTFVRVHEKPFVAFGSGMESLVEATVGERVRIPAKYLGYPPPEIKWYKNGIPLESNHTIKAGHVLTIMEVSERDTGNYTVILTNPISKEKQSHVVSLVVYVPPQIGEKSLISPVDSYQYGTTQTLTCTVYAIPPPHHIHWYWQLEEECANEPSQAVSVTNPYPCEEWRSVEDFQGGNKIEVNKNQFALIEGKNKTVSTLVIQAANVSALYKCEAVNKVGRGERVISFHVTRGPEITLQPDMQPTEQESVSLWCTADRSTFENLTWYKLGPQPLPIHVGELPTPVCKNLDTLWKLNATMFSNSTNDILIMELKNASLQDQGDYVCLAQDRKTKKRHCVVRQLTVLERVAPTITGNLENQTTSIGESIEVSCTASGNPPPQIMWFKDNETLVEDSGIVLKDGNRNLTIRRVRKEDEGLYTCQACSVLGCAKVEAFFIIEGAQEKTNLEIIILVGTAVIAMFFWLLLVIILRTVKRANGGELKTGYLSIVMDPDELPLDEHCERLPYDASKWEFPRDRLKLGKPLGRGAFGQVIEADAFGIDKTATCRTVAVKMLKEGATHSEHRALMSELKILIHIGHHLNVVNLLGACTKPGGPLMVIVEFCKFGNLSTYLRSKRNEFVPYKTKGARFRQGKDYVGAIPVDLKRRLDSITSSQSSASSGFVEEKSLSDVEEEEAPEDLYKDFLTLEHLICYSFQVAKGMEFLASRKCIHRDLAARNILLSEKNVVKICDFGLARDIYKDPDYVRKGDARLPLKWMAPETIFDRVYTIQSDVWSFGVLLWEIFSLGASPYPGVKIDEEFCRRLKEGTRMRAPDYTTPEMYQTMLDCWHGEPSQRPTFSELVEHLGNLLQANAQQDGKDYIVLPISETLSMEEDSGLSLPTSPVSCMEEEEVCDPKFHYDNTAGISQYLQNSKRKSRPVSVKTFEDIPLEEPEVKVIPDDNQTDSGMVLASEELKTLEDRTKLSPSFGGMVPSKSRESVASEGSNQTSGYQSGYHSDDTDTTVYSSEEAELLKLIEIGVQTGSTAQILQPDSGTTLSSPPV

Molecule normal IgG (antibody) registered an HUVEC proliferation (VEGF-induced, cell count after 48 hours) in test [1] of 1 µg/mL.

B1: AC88 anti-VEGFR2 monoclonal antibody (antibody, human IgG1, kappa, V domains shown)
VH: EVQLVESGGGLVKPGGSLRLSCAASGFTFSSYSMTWVRQAPGKGLEWVSSISSSSSYIYYADSVKGRFTISRDNAKNSLYLQMNSLRAEDTAVYYCAKATSGYMDVWGQGTTVTVSS
VL: DIQMTQSPSSLSASVGDRVTITCQASQDINNYLNWYQQKPGKAPKLLIYDASNLETGVPSRFSGSGSGTDFTLTISSLESEDIATYYCQQHVNYPLTFGGGTKVEIKR
notes: Fully human IgG1 kappa from a hybridoma; also called AC88 antibody; anti-VEGFR2 antibody
Take B1: the binding result in test [2] is recorded as “no binding”.
